Laboratory results published in US20160340659A1, “ACTIN BINDING PEPTIDES AND COMPOSITIONS COMPRISING SAME FOR INHIBITING ANGIOGENESIS AND TREATING MEDICAL CONDITIONS ASSOCIATED WITH SAME” (YISSUM RESEARCH AND DEVELOPMENT COMPANY OF THE HEBREW …, priority 2014, published 2016).
Each block holds one substance with its values, some of them ahead of it.

Columns and labels:
Rabbit muscle actin = target: T1, Rabbit muscle actin (Oryctolagus cuniculus, UniProt P68135); assay: Peptide array screen for actin binding; conditions: peptides on cellulose membrane; 5 μM actin; densitometry relative to K108-K133
T1 construct: Rabbit muscle actin (A2522, Sigma-Aldrich, St Louis, Mo.); purchased Sigma-Aldrich, St Louis, Mo; A2522; host or cells: rabbit muscle (tissue-derived)
Description: The peptides were acetylated at their N-termini and attached to a cellulose membrane via their C-termini through an amide bond. Peptide array (INTAVIS Bioanalytical Instruments AG, Koeln, Germany).
The array was immersed in 5 ml blocking solution (TBST containing 2.5% milk) for 4 hours with shaking, then washed once with blocking solution (30 sec.) and twice with TBST (5 min. each). 5 μM actin were dissolved in the blocking solution (˜1:3), and incubated with the array at 4° C. with shaking overnight. After washing with TBST (1×30 sec. and 2×5 min.) the array was incubated first with rabbit anti actin antibody diluted 1:100 in blocking solution for 4 hours at room temperature followed by washings three times with TBST (1×30 sec. and 2×5 min.). The array was then incubated with horseradish peroxidase-conjugated goat anti rabbit IgG antibody diluted 1:10,000 in blocking solution at room temperature for 2 hours followed by washing with TBST (1×30 sec. and 2×5 min.). Immunodetection was performed using chemiluminiscence with ECL reagents.
The modifications included an alanine scan, truncations and systematic replacements of each residue in each peptide by the corresponding D-amino acid residue and N-methylated residue, C terminal truncations and N terminal truncations. The array was screened for binding the actin protein.

[1] = tested on: chick Chorio-Allantoic Membrane (CAM); assay: Ex ovo CAM angiogenesis assay; format: in vivo, chicken; conditions: 3 μg on paper disk daily for four days from day 8; compared to PBS control
Description: In this assay, in-vivo angiogenesis is assessed on live chick embryos grown in petri dishes. Fertilized eggs are cracked into a petri dish after a few (e.g. 3) days incubation at appropriate temperature (e.g. 37° C.) and humidity. In the following days, the embryos developed a vascular network, which can then easily be exposed to any treatment or combination of treatments, for example, via delivery onto absorbent disks placed on/about the developing vascular regions. Angiogenesis is scored by periodically (e.g. 1×/day, 2×/day, 1×/2 days, 1×/4 days, etc) counting the number of blood vessels around the disk.
Fertilized chicken eggs were incubated horizontally at 37° C. and humidity of 60-62% and cracked into Petri dishes at embryonic day 4. Incubation was continued under the same conditions. […] Treatment was given every day for four days, then, the number of blood vessels around the treated disks was counted.

actin = actin (Oryctolagus cuniculus, UniProt P68135); assay: Surface plasmon resonance (BIAcore) of actin binding; conditions: actin on CM5 chip, 25° C.
Description: SPR was performed on a BIAcore 3000 instrument (BIAcore, Uppsala, Sweden). Actin was diluted in 100 mM CH3COONa pH 4.6 to a final concentration of 20 μg/ml (200 μl total) resulting in ˜1 ng immobilized actin on a CM5 BIAcore sensor chip (GE Healthcare Bio-Sciences AB) using the standard BIAcore amine coupling chemistry protocol. The CM5 chip allows four separate flow cells to be operated in the BIAcore 3000 instrument used in these experiments. Coupling is achieved by activating the surface of the sensor chips with equal volumes of 50 mM N-hydroxysuccimide (NHS)/200 mM Nethyl-N-(3-[…])-carboiimide (EDC) (BIAcore, AB, Uppsala, Sweden) to form activated carboxyl groups. An actin solution […] was run over the chip for 5 min at a rate of 10 μl/min, allowing the amine groups on the protein to react with the activated esters. In the final stage of immobilization, the surface was blocked by 1M ethanol amine, pH 8.0. The binding assay was performed by injecting the hRNASET2, trT2-49, trT2-49m or peptides solutions in running buffer (HBS—10 mM Hepes, 150 mM Sodium Chloride, 3 mM EDTA, 0.005% Polysorbate 20) at 5 different concentrations at a flow rate of 10 μl/min at 25° C. Injections were performed simultaneously over all four channels and blank surface (a plain dextran matrix, channel 1) was used as control. The net signal was obtained by subtracting the blank signal from the signal of the immobilized surface. The association phase for protein or peptides binding to actin was followed for 4 min, and dissociation phases were monitored for 3 min. Surface regeneration between consecutive binding cycles included a 1 min injection of 1 mM NaOH. The response was monitored as a function of time (sensorgram) at 25° C. Multi-concentration data were globally fit using BIA evaluation 3.2 software.
The strength of a two molecule interaction is characterized by the equilibrium dissociation (binding) constant KD=[P][L]/[PL], where [P] is the concentration of free protein (or peptide), [L] the concentration of ligand and [PL] the concentration of the complex. […]

[2] = target: T2, G-Actin from rabbit muscle (Oryctolagus cuniculus, UniProt P68135); assay: ELISA actin binding assay (solid-phase, immobilized actin); conditions: immobilized G-actin 500 ng/well
T2 construct: G-Actin from rabbit muscle; purchased Sigma-Aldrich, St Louis, Mo; host or cells: rabbit muscle (tissue-derived)
Description: Peptides corresponding to a variety of amino acid sequences in the region of human RNASET2 comprising helix 5 and helix 6 were synthesized and assayed for actin binding in an ELISA actin binding assay.
Solid-phase ELISA for RNASET2 peptide binding to immobilized actin was performed as modified from Mejean 1987 (Biochem. J. 244: 571-577) and Mejean 1992 (Eur. J Biochem. 209: 555-562). All steps were conducted at 37° C. Immuno-96 Microwell™ solid plates (Thermo Fisher Scientific, MA) coated with 500 ng/well of G-Actin from rabbit muscle (Sigma-Aldrich, St Louis, Mo.) in 100 ul of 0.05 M carbonate buffer, pH 9.5 (Sigma-Aldrich, Mo), incubated for 1 h and washed with 250 ul/well Tris Buffered Saline (TBS) (Sigma-Aldrich). The wells were blocked with 3% bovine serum albumin (BSA, Sigma-Aldrich) in 200 ul/well TBS for another 1 hour and washed with 250 ul/well TBS. The candidate peptides are then added at various concentrations (for example, serial dilutions giving 500, 250 or 125 ng/well) in 100 ul/well Tris Buffered Saline (TBS), incubated for 1 hour and washed 3 times with 250 ul/well TBS containing 0.05% Tween®20 (TBST, Sigma-Aldrich). Anti-T2 RNase (rabbit anti-rhtrRNASET2, Anilab, Israel, whole serum or antiserum) was then added, incubated for 1 hour and the plates washed 3 times with 250 ul/well TBST. Labeled second antibody [peroxidase-conjugated affinity pure goat-anti rabbit IgG (Jackson, Pa.)] was added at a dilution of 1:10:000 in 100 ul/well TBS, incubated for 1 hour and the plates washed twice with 250 ul/well TBST. After an additional wash with 250 ul/well TBS, 1-Step Ultra TMB-ELISA (TMB-3,3′,5,5′ Tetramethylbenzidine) (Thermo-Scientific) was added (100 ul/well) and after 15-25 min of incubation, the reaction was read at A650 using Infinite F50-TECAN ELISA READER (TECAN, Austria). Each assay was performed in triplicates.

HUVEC = HUVEC tube formation assay on Matrigel; format: cell-based, human; conditions: angiogenin or VEGF induced; 2 μM peptide
Description: FIGS. 6A-6D illustrate in-vitro inhibition of angiogenesis in the HUVEC model by T2 peptides. HUVEC cells plated on Matrigel™ were exposed to 2 μM of T2 peptides A103-Q159 (SEQ ID NO: 60), K108-K133 (SEQ ID NO: 57) or K108-L123 (SEQ ID NO: 67), in addition to 1 μg/ml of angiogenin or VEGF as the angiogenic agent, as indicated. Control wells received PBS. FIG. 6B-Results were assessed by imaging software, and quantified, and expressed relative to tube formation with angiogenin or VEGF alone (100%) Column 1=angiogenin, column 2=angiogenin+SEQ ID NO: 60, column 3=angiogenin+SEQ ID NO: 57, column 4=angiogenin+[…], Column 5=VEGF, column 6=VEGF+SEQ ID NO: 60, column 7=VEGF+SEQ ID NO: 57, column 8=VEGF+[…]. FIGS. 6C and 6D illustrate the inhibitory effect of truncated human T2 polypeptide trT2-49m (SEQ ID NO: 129) on angiogenin and VEGF induced HUVEC tube formation. Note the significant inhibition of HUVEC tube formation by all of the T2 peptides assayed, and in particular, K108-K133 (SEQ ID NO: 57);
HUVEC (CC-2519)(fresh or commercially provided) are maintained in M199 rrrediurn supplemented with 20% FCS, 1% glutamine, 1% antibiotic-antimycotic solution, ECGF, and heparin, plated in a 96-well plate (14×10^3 cells/well) previously coated with growth factor-depleted Matrigel™ (BD Biosciences), in M199 medium containing 5% FCS and 0.005% ECGF. The wells are supplemented with candidate T2 RNase peptides or PBS, and angiogenic growth factors (1 μg/ml angiogenin, bFGF or VEGF) to a final volume of 120 pl. Plates are incubated (overnight), photographed and the extent of tube formation (angiogenesis) assessed.

Substance: LYREL [SEQ ID NO: 132]
- actin binding of immobilized peptides (Rabbit muscle actin): significant actin binding

Substance: SEQ ID NO: 1: mature full length human RNASET2, T2 family ribonuclease
- inhibition of angiogenesis (number of blood vessels around disk) [1]: effective in inhibiting angiogenesis
- Ka × 10^3 (actin): 1.44 ×10^3 1/Ms

Substance: SEQ ID NO: 63: peptide representing amino acids 103-141 of RNASET2 (ALNSQKKYFGRSLELYRELDLNSVLLKLGIKPSINYYQV)
- actin binding on ELISA [2]: moderate

Substance: SEQ ID NO: 67: peptide K108-L123 of human RNASET2, 16 aa
- inhibition of HUVEC tube formation (HUVEC): unable to inhibit tube formation

Next, values leading:

- actin binding of immobilized peptides (Rabbit muscle actin): significant actin binding
Substance: KKYFGRSLEL [SEQ ID NO: 131]

- actin binding of immobilized peptides (Rabbit muscle actin): significant actin binding
Substance: KKYFGRSLELYR [SEQ ID NO: 62]
